Measured values: publication PMC8231982

Legend:
[1] = target: HA H3 top domain (not stated (Figure 2 shows HA of influenza A virus X-31)) (UniProt P03437); test: ELISA
[2] = target: HIV-1 gp120 monomer, strain HxBc2 (HIV-1, strain HxBc2) (UniProt P04578); test: SPR

Substance	Kd [1]	Kd [2]
SUMO-CVN2L0 fusion protein (designed binder)	554 nM	
CVN2L0, engineered linker-free domain-swapped dimer of cyanovirin-N (designed binder)		49 nM
